# Like-named read-outs stand apart in the source and are kept apart here.
# T1: EcMazE1-50 (Escherichia coli, UniProt P0AE72 1-50)
# T1 chain: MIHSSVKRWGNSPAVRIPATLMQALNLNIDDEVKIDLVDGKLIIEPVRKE
# B1: DNA 'a' (EMSA probe) (dsDNA)
# DNA 1: TTGATATATACTGT
# DNA 2: ACAGTATATATCAA
# B2: DNA 'a' (15 bp, altered ends) (dsDNA)
# DNA 1: CGTGATATATACTGC
# DNA 2: GCAGTATATATCACG
# B3: DNA 'b' (dsDNA)
# DNA 1: ATATACTGTATCTACATAT
# DNA 2: ATATGTAGATACAGTATAT
# B4: DNA 'c' (dsDNA)
# DNA 1: GTATCTACAATGTAGATTG
# DNA 2: CAATCTACATTGTAGATAC
# B5: DNA 'cab' (dsDNA)
# DNA 1: CTCGTATCTACAATGTAGATTGATATATACTGTATCTACATATGATAGCGT
# DNA 2: ACGCTATCATATGTAGATACAGTATATATCAATCTACATTGTAGATACGAG
# B6: DNA 'a' (14 bp) (dsDNA)
# DNA 1: TTGATATATACTGT
# DNA 2: ACAGTATATATCAA
# Experiments:
# [1] = target: EcMazE full-length;EcMazF (Escherichia coli;Escherichia coli, UniProt P0AE72;P0AE70 1-82;1-111, |); assay: EMSA
# Chain of EcMazE full-length;EcMazF (P0AE70 whole entry, one chain of several): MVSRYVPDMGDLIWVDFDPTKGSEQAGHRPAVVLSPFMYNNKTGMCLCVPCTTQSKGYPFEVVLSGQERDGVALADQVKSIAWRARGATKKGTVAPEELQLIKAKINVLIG
# [2] = target: T1, EcMazE1-50; assay: NMR
# [3] = target: T1, EcMazE1-50; assay: ITC
# [4] = target: the molecule itself; assay: NMR solution structure
# [5] = target: T1, EcMazE1-50; assay: ITC
# [6] = target: EcMazE full-length (Escherichia coli, UniProt P0AE72 1-82); assay: ITC
# Chain of EcMazE full-length (P0AE72 whole entry): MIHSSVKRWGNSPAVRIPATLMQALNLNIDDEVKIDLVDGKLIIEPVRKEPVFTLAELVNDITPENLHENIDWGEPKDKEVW
binder,measurement,setting,value
B1,binding result,[1],binds
B2,binding result,[2],binds
B3,Kd,[3],2100 ± 600 nM
MIHSSVKRWGNSPAVRIPATLMQALNLNIDDEVKIDLVDGKLIIEPVRKE (domain or fragment) [truncated EcMazE^1–50 (N-terminal DNA binding domain of Escherichia coli antitoxin MazE)],stoichiometry N,[4],2
B4,Kd,[3],600 ± 200 nM
B5,Kd,[5],600 ± 500 nM
B6,Kd,[6],5100 ± 200 nM
same,Kd,[3],5600 ± 300 nM
